Entries after “also recorded” stand apart in the source; their conditions may differ.
Assays:
SDC2 RNA = SDC2 RNA levels in treated cell populations; type: cell-based, human
Excerpt: HDAC inhibitors and sirtuins may be used to increase SDC2 expression. […] The sirtuin family of HDACs, including SIRT1 and SIRT2, may be used to increase SDC2 expression. The sirtuins are NAD-dependant HDACs and are reported to deacetylate p53 protein—acetylation of p53 is reported to be important for its transactivation/transcription activity. Thus sirtuins are key regulators of p53 activity. Examples of sirtuins include nicotinamide, sirtinol, EX-527 and tenovins. […] DMSO is also reported to contain HDAC inhibitor (p53 activation) capacity.
DMOG is a hypoxia mimetic, and other hypoxia mimetics for use in the invention include cobalt chloride, EDHB and desferrioxamine. Hypoxia is reported to stimulate p53 (via ATR/CHK1 kinases).
We tested various HDAC inhibitors for their effect on SDC2 expression on human cell populations initially isolated on the basis of SDC2 expression and maintained subsequently in culture.

SDC2 secretion = SDC2 secretion after environmental toxin BPDE; type: cell-based, human; details: 600 nM BPDE
[1] = test system: SDC2 shedding from human MSCs; experiment: SDC2 ELISA of supernatants of Nutlin-3a treated MSCs; type: cell-based; details: 24 h
Protocol: MSCs were plated at a density of 10^5 cells per well of a 6-well plate (Nunc) in complete media (α-MEM, 10% FBS) and left to adhere overnight. Medium was then exchanged for serum-free containing Nutlin-3a or DMSO as a carrier control. 24 h post-induction the cells were harvested for both RNA and protein and the serum-free supernatant was collected for ELISA.
The levels of human Syndecan-2 was measured in supernatants collected from hMSCs using commercially available ELISA assays (CUSABIO). The assay was conducted as per the manufacturer's instructions. Calibration curves were prepared using purified standards for SDC2. Curve fitting was accomplished by sigmoidal logisitic regression following manufacturer's instructions.
24 h post-treatment with Nutlin-3a (5, 10, 20 μM) or DMSO carrier control (5, 20 μM), the supernatant from MSCs was collected, centrifuged for 5 min at 1500 rpm and subjected to SDC2 ELISA including unconditioned serum-free media as an additional control.
MSCs treated with either Nutlin-3a or DMSO as a carrier control for 24 h in serum-free media. The serum-free supernatants were collected and a commercially available SDC2 ELISA kit was used to detect shed SDC2 present in the supernatants.

SU-86-86 = experiment: Cancer cell migration toward conditioned medium (xCELLigence RTCA); type: cell-based
Excerpt: (§1) Cell migration is a critical parameter for in vitro cell culture-related studies. It is necessary to monitor the dynamic changes of cell populations under different conditions. Using a real time cell analyser (RTCA, xCELLigence, Roche) which is an impedance-based device we can monitor the following properties in real time: proliferation, migration and cell adherence. Such properties are involved in cancer evolution. We used this method to establish the migratory capacity of cancer cells toward conditioned medium. The model is accepted as predictive of efficacy in cancer therapy—reduced migration in the model indicates anti-cancer properties.
(§2) In our investigations, cell migration was determined using 16-well CIM plates read in real-time using the aforementioned xCELLigence device. For these studies a variety of cancer cell lines were used from breast cancer (MDA-MB-231, MDA-MB-486, MCF-10A), prostate cancer (DU145), pancreas cancer (SU-86-86) and colon carcinoma (HCT116).

Du145 = experiment: as above; type: cell-based; details: Recombinant SDC2 500 ng/ml
Excerpt: as §1, §2

MDA-MB-231 = experiment: as above; type: cell-based; details: one symbol per experiment
Excerpt: as §1, §2

[2] = test system: NFκB activation by TNFα and IL1β; experiment: κB luciferase assay in A549 cells pretreated with SDC2 recombinant protein; type: cell-based; details: 10 ng/mL TNF-α/IL-1β, 24 hours
Protocol: A549 cells stably transduced with κB luciferase plasmid were pretreated for 1 hour with SDC2 recombinant protein. 10 ng/mL TNF-α/IL-1β was added to the media and luciferase assay performed after 24 hours. The results are shown in FIG. 5. ***=p<0.0001 with respect to 0 ng/mL S2
A549 cells stably transduced with KB luciferase plasmid and treated for 24 hours with recombinant SDC2. In the top panel: cytokines were added to the media for 24 hours and luciferase assay performed. In the bottom panel: media was replaced before addition of cytokines for 24 hours. *=p<0.01 with respect to 0 ng/mL S2; ***=p<0.0001 with respect to 0 ng/mL S2; +++=p<0.0001 with respect to 100 ng/mL S2.

HCT116 = experiment: Cancer cell migration toward conditioned medium (xCELLigence RTCA); type: cell-based; parameters: key: ↑: increased migration compared to conditioned media; ↓: decreased cell migration compared to conditioned media; —: no changed compared to conditioned media
Excerpt: as §1, §2

[3] = at 24 hrs, human cell populations isolated on SDC2 expression
[4] = other series of tests, time not given

2-pyrrolidinone-n-butyric acid [PBA]
SDC2 RNA levels (SDC2 RNA; [3]): increased SDC2 RNA levels

OC1c2cc3ccc4cccc5ccc(c2C2OC2C1O)c3c45 (stereo not drawn) [BPDE, benzo[a]pyrene-7,8-diol-9,10-epoxide]
increase of SDC2 secretion (SDC2 secretion): approximately 3 fold

COC(=O)CNC(=O)C(=O)OC [DMOG, Dimethyloxaloylglycine]
SDC2 RNA levels (SDC2 RNA; [4]): very robust increase in SDC2 RNA

C[S+](C)[O-] [DMSO]
SDC2 RNA levels (SDC2 RNA; [4]): increased SDC2 RNA levels

COc1ccc(C2=N[C@@H](c3ccc(Cl)cc3)[C@@H](c3ccc(Cl)cc3)N2C(=O)N2CCNC(=O)C2)c(OC(C)C)c1 [Nutlin-3a]
SDC2 shedding ([1]; 5, 10, 20 μM, compared to DMSO control): dose-dependent increase in SDC2 shedding
amount of shed SDC2 ([1]; Nutlin-3a 20 μM, serum-free, average of three MSC donors): ~1000 pg/mL

O=C1CCc2c(ccc3ccccc23)O1 [Splitomicin]
SDC2 RNA levels (SDC2 RNA; [3]): increased SDC2 RNA levels; also recorded: greatest stimulation

CCCC(CCC)C(=O)O [Valproic Acid]
SDC2 RNA levels (SDC2 RNA; [3]): increased SDC2 RNA levels

B1: Recombinant SDC2: recombinant Syndecan-2 (SDC2) protein (protein, UniProt P34741 19-201, looked up)
Syndecan-2: ESRAELTSDKDMYLDNSSIEEASGVYPIDDDDYASASGSGADEDVESPELTTSRPLPKILLTSAAPKVETTTLNIQNKIPAQTKSPEETDKEKVHLSDSERKMDPAEEDTNVYTEKHSDSLFKRTEVLAAVIAGGVIGFLFAIFLILLLVYRMRKKDEGSYDLGERKPSSAAYQKAPTKEFYA
Cancer Cell Migration (SU-86-86; Recombinant SDC2 100 ng/ml): ↓↑
Cancer Cell Migration (SU-86-86; Recombinant SDC2 500 ng/ml): ↓↓
Cancer Cell Migration (SU-86-86; Recombinant SDC2 1000 ng/ml): ↓↑
Cancer Cell Migration (Du145): ↓—
Cancer Cell Migration (MDA-MB-231; Recombinant SDC2 100 ng/ml): ↓↓
Cancer Cell Migration (MDA-MB-231; Recombinant SDC2 500 ng/ml): ↓↓↓↓↓—
NFκB activation by TNFα and IL1β [2]: suppressed NFκB activation
Cancer Cell Migration (HCT116; Recombinant SDC2 100 ng/ml): ↓
Cancer Cell Migration (HCT116; Recombinant SDC2 500 ng/ml): ↓
Cancer Cell Migration (HCT116; Recombinant SDC2 1000 ng/ml): ↓
